Data from patent publication US20120135923A1 (IPSEN PHARMA S A S, published 2012).
Bridge positions count the residues as written; N and C are the ends. Square brackets hold non-standard residues; d marks the D form. Ends that are not written are not given here. 2Nal = N[C@@H](Cc1ccc2ccccc2c1)C(=O)O; d2Nal = N[C@H](Cc1ccc2ccccc2c1)C(=O)O; Bta = N[C@@H](Cc1csc2ccccc12)C(=O)O; Pen = CC(C)(S)[C@H](N)C(=O)O; Ac6c = NC1(C(=O)O)CCCCC1; Nle = CCCC[C@H](N)C(=O)O; Ac3c = NC1(C(=O)O)CC1; GABA = NCCCC(=O)O; βAla = NCCC(=O)O

B1: Ac-D-Arg-c(Cys-His-D-Phe-Arg-Trp-Gaba-Pen)-NH2 (peptide)
peptide: Ac-[dR]CH[dF]RW[GABA][Pen]-NH2
modifications: disulfide 2-8
SMILES: CC(=O)N[C@H](CCCNC(=N)N)C(=O)N[C@H]1CSSC(C)(C)[C@@H](C(N)=O)NC(=O)CCCNC(=O)[C@H](Cc2c[nH]c3ccccc23)NC(=O)[C@H](CCCNC(=N)N)NC(=O)[C@@H](Cc2ccccc2)NC(=O)[C@H](Cc2c[nH]cn2)NC1=O
B2: Ac-c(Cys-Glu-His-D-Phe-Arg-Trp-Ala-Cys)-NH2 (peptide)
peptide: Ac-CEH[dF]RWAC-NH2
modifications: disulfide 1-8
SMILES: CC(=O)N[C@H]1CSSC[C@@H](C(N)=O)NC(=O)[C@H](C)NC(=O)[C@H](Cc2c[nH]c3ccccc23)NC(=O)[C@H](CCCNC(=N)N)NC(=O)[C@@H](Cc2ccccc2)NC(=O)[C@H](Cc2c[nH]cn2)NC(=O)[C@H](CCC(=O)O)NC1=O
B3: Ac-Nle-c(Asp-D-Ala-His-D-Phe-Arg-Trp-Lys)-NH2 (peptide)
peptide: Ac-[Nle]D[dA]H[dF]RWK-NH2
modifications: lactam 2-8
SMILES: CCCC[C@H](NC(C)=O)C(=O)N[C@H]1CC(=O)NCCCC[C@@H](C(N)=O)NC(=O)[C@H](Cc2c[nH]c3ccccc23)NC(=O)[C@H](CCCNC(=N)N)NC(=O)[C@@H](Cc2ccccc2)NC(=O)[C@H](Cc2c[nH]cn2)NC(=O)[C@@H](C)NC1=O
B4: Ac-Nle-c(Cys-His-D-Phe-Arg-D-Trp-β-Ala-Cys)-NH2 (peptide)
peptide: Ac-[Nle]CH[dF]R[dW][βAla]C-NH2
modifications: disulfide 2-8
SMILES: CCCC[C@H](NC(C)=O)C(=O)N[C@H]1CSSC[C@@H](C(N)=O)NC(=O)CCNC(=O)[C@@H](Cc2c[nH]c3ccccc23)NC(=O)[C@H](CCCNC(=N)N)NC(=O)[C@@H](Cc2ccccc2)NC(=O)[C@H](Cc2c[nH]cn2)NC1=O
B5: Phe-c(Cys-His-D-Phe-Arg-Trp-Gaba-Cys)-NH2 (peptide)
peptide: FCH[dF]RW[GABA]C-NH2
modifications: disulfide 2-8; N-terminus assumed
SMILES: N=C(N)NCCC[C@@H]1NC(=O)[C@@H](Cc2ccccc2)NC(=O)[C@H](Cc2c[nH]cn2)NC(=O)[C@@H](NC(=O)[C@@H](N)Cc2ccccc2)CSSC[C@@H](C(N)=O)NC(=O)CCCNC(=O)[C@H](Cc2c[nH]c3ccccc23)NC1=O
B6: Ac-Arg-c(Cys-His-D-Phe-Arg-Trp-Gaba-Pen)-NH2 (peptide)
peptide: Ac-RCH[dF]RW[GABA][Pen]-NH2
modifications: disulfide 2-8
SMILES: CC(=O)N[C@@H](CCCNC(=N)N)C(=O)N[C@H]1CSSC(C)(C)[C@@H](C(N)=O)NC(=O)CCCNC(=O)[C@H](Cc2c[nH]c3ccccc23)NC(=O)[C@H](CCCNC(=N)N)NC(=O)[C@@H](Cc2ccccc2)NC(=O)[C@H](Cc2c[nH]cn2)NC1=O
B7: Ac-Nle-c(Asp-D-Ala-His-D-Phe-Arg-Bal-Lys)-NH2 (peptide)
peptide: Ac-[Nle]D[dA]H[dF]R[Bta]K-NH2
modifications: lactam 2-8
SMILES: CCCC[C@H](NC(C)=O)C(=O)N[C@H]1CC(=O)NCCCC[C@@H](C(N)=O)NC(=O)[C@H](Cc2csc3ccccc23)NC(=O)[C@H](CCCNC(=N)N)NC(=O)[C@@H](Cc2ccccc2)NC(=O)[C@H](Cc2c[nH]cn2)NC(=O)[C@@H](C)NC1=O
B8: Ac-Nle-c(Cys-D-Leu-His-D-Phe-Arg-Trp-Cys)-NH2 (peptide)
peptide: Ac-[Nle]C[dL]H[dF]RWC-NH2
modifications: disulfide 2-8
SMILES: CCCC[C@H](NC(C)=O)C(=O)N[C@H]1CSSC[C@@H](C(N)=O)NC(=O)[C@H](Cc2c[nH]c3ccccc23)NC(=O)[C@H](CCCNC(=N)N)NC(=O)[C@@H](Cc2ccccc2)NC(=O)[C@H](Cc2c[nH]cn2)NC(=O)[C@@H](CC(C)C)NC1=O
B9: Ac-c(Cys-D-Ala-His-D-Phe-Arg-2-Nal-Ala-Cys)-NH2 (peptide)
peptide: Ac-C[dA]H[dF]R[2Nal]AC-NH2
modifications: disulfide 1-8
SMILES: CC(=O)N[C@H]1CSSC[C@@H](C(N)=O)NC(=O)[C@H](C)NC(=O)[C@H](Cc2ccc3ccccc3c2)NC(=O)[C@H](CCCNC(=N)N)NC(=O)[C@@H](Cc2ccccc2)NC(=O)[C@H](Cc2c[nH]cn2)NC(=O)[C@@H](C)NC1=O
B10: c[Hydantoin(C(O)-(Asp-A6c))-D-2-Nal-Arg-Trp-Lys]-NH2 (peptide)
peptide: D[Ac6c][d2Nal]RWK-NH2
modifications: lactam 1-6; also: hydantoin ring: N-terminal N of Asp1 and backbone N of residue 2 bridged by one C(O), bridge at N via C(O), other end not in the chain
B11: c[Hydantoin(C(O)-(Asp-A3c))-D-2-Nal-Arg-Trp-Lys]-NH2 (peptide)
peptide: D[Ac3c][d2Nal]RWK-NH2
modifications: lactam 1-6; also: hydantoin ring: N-terminal N of Asp1 and backbone N of residue 2 bridged by one C(O), bridge at N via C(O), other end not in the chain

The binders below were run against T1, hMC1-R (human, UniProt Q01726 1-317) (assay: ratio Ki hMC1-R / Ki hMC4-R, same assay).
T1 construct: whole, on cells; Assayed as membranes of CHO-K1 cells expressing the receptor; also called hMC-R receptor subtype 1; melanocyte-specific receptor (MC1-R)
Experimental: (§1) Cellular membranes used for the in vitro receptor binding assays were obtained from transgenic CHO-K1 cells stably expressing hMC-R receptor subtypes 1, 3, 4 or 5. […] The pellets were resuspended in the same buffer and centrifuged at 50,000 g for 10 minutes at approximately 4° C. The washed pellets containing the cellular membranes were stored at approximately −80° C.
(§2) Competitive inhibition of [¹²⁵I](Tyr²)-(Nle⁴-D-Phe⁷)α-MSH ([¹²⁵I]-NDP-α-MSH, Amersham Biosciences®) binding was carried out in polypropylene 96 well plates. Cell membranes (1-10 μg protein/well) prepared as described above were incubated in 50 mM Tris-HCl at pH 7.4 containing 0.2% bovine serum albumin (BSA), 5 mM MgCl₂, 1 mM CaCl₂ and 0.1 mg/mL bacitracin, with increasing concentrations of the test compound and 0.1-0.3 nM […] for approximately 90-120 minutes at approximately 37° C. Bound [¹²⁵I]-NDP-α-MSH ligand was separated from free [¹²⁵I]-NDP-α-MSH by filtration through GF/C glass fiber filter plates (Unifilter®; Packard) presoaked with 0.1% (w/v) polyethylenimine (PEI), using a Packard Filtermate® harvester. Filters were washed three times with 50 mM Tris-HCl at pH 7.4 at a temperature of approximately 0-4° C. and then assayed for radioactivity using a Packard Topcount® scintillation counter. Binding data were analyzed by computer-assisted non-linear regression analysis (XL fit; IDBS).

T1 sequence (Q01726 whole entry): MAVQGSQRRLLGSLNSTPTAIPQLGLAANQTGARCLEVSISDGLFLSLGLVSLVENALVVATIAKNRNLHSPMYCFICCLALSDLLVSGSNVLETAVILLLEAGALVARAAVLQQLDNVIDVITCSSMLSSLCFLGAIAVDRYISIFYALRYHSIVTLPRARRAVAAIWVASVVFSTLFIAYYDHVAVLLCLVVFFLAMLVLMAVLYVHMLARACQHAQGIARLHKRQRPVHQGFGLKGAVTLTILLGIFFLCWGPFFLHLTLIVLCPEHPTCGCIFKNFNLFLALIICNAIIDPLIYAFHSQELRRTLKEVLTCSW

Binder	Ki hMC1-R/MC4-R
B1	0.36
B2	2.33
Ac-C[dA]H[dF]RWAC-NH2 (disulfide 1-8) [Ac-c(Cys-D-Ala-His-D-Phe-Arg-Trp-Ala-Cys)-NH2]	2.06
Ac-FCH[dF]RW[GABA]C-NH2 (disulfide 2-8) [Ac-Phe-c(Cys-His-D-Phe-Arg-Trp-Gaba-Cys)-NH2]	0.12
B3	0.26
B4	0.16
B5	0.04
B6	0.4
B7	0.08
B8	0.39
B9	3.24
Ac-[Nle]C[dA]H[dF]RWAC-NH2 (disulfide 2-9) [Ac-Nle-c(Cys-D-Ala-His-D-Phe-Arg-Trp-Ala-Cys)-NH2]	0.41

These binders were tested against T2, human melanocortin receptor subtype 3 (hMC3-R) (human, UniProt P41968 1-323) (assay: [125I]-NDP-α-MSH competition, membranes).
T2 construct: whole, on cells; membranes of CHO-K1 cells
T2 sequence (P41968 whole entry): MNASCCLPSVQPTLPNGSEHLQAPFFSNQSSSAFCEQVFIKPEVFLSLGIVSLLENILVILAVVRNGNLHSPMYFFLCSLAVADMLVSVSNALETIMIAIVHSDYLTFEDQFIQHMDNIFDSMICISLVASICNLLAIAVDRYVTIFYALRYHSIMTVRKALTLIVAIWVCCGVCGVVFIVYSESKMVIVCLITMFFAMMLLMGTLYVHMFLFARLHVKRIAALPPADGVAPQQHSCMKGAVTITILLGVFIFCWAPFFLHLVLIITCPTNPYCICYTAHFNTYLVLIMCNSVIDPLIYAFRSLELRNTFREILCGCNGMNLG

Binder	Ki [nM]
GCEH[dF]RWC-NH2 (disulfide 2-8; also: hydantoin ring from C(O) with Gly1-Cys2) [c[Hydantoin(C(O)-(Gly-Cys))-Glu-His-D-Phe-Arg-Trp-Cys]-NH2]	305
B10	1480
B11	1920

Each binder was assayed against T3, human melanocortin receptor subtype 1 (hMC1-R) (human, UniProt Q01726 1-317) (assay: [125I]-NDP-α-MSH competition, membranes).
T3 construct: whole, on cells; membranes of CHO-K1 cells
T3 sequence (Q01726 whole entry): as the sequence (Q01726 whole entry) above

Binder	Ki [nM]
GCEH[dF]RWC-NH2 (disulfide 2-8; also: hydantoin ring from C(O) with Gly1-Cys2) [c[Hydantoin(C(O)-(Gly-Cys))-Glu-His-D-Phe-Arg-Trp-Cys]-NH2]	15.6
B10	2170
B11	7570

These binders were tested against T4, human melanocortin receptor subtype 5 (hMC5-R) (human, UniProt P33032 1-325) (assay: [125I]-NDP-α-MSH competition, membranes).
T4 construct: whole, on cells; membranes of CHO-K1 cells
T4 sequence (P33032 whole entry): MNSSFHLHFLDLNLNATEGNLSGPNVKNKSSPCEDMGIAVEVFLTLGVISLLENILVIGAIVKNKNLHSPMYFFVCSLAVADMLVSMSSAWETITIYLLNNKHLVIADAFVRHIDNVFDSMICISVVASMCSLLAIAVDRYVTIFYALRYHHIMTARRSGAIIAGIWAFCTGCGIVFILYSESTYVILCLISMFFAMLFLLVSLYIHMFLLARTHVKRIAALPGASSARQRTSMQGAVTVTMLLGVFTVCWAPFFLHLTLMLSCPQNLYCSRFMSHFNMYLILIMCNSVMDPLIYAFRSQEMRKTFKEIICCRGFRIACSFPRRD

Binder	Ki [nM]
GCEH[dF]RWC-NH2 (disulfide 2-8; also: hydantoin ring from C(O) with Gly1-Cys2) [c[Hydantoin(C(O)-(Gly-Cys))-Glu-His-D-Phe-Arg-Trp-Cys]-NH2]	3070
B10	451
B11	2880

Each binder was assayed against T5, human melanocortin receptor subtype 4 (hMC4-R) (human, UniProt P32245 1-332) (assay: [125I]-NDP-α-MSH competition, membranes).
T5 construct: whole, on cells; membranes of CHO-K1 cells
T5 sequence (P32245 whole entry): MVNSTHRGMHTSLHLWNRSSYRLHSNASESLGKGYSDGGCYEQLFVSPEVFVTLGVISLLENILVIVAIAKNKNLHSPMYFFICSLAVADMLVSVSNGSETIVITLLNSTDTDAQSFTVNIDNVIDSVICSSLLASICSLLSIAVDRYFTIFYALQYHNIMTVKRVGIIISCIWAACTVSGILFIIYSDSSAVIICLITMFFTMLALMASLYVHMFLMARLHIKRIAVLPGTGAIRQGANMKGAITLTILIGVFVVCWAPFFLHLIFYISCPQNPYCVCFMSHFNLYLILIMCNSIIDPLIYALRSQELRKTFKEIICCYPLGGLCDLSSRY

Binder	Ki [nM]
GCEH[dF]RWC-NH2 (disulfide 2-8; also: hydantoin ring from C(O) with Gly1-Cys2) [c[Hydantoin(C(O)-(Gly-Cys))-Glu-His-D-Phe-Arg-Trp-Cys]-NH2]	8.92
B10	16.5
B11	420

What follows are binders tested against T1, hMC1-R (assay: competition with [125I]-NDP-α-MSH, CHO-K1 membranes).
Experimental: as §1, §2

Binder	Ki [nM]
B1	3.93
B2	111
Ac-C[dA]H[dF]RWAC-NH2 (disulfide 1-8) [Ac-c(Cys-D-Ala-His-D-Phe-Arg-Trp-Ala-Cys)-NH2]	199
B3	0.659
B4	0.323
B5	0.186
B6	1.81
B7	4.12
B8	1.6
B9	132
Ac-[Nle]C[dA]H[dF]RWAC-NH2 (disulfide 2-9) [Ac-Nle-c(Cys-D-Ala-His-D-Phe-Arg-Trp-Ala-Cys)-NH2]	9.12

These binders were tested against T6, hMC4-R (human, UniProt P32245 1-332) in the same assay as above.
T6 construct: whole, on cells; Assayed as membranes of CHO-K1 cells expressing the receptor; also called hMC-R receptor subtype 4; melanocortin-4 (MC4-R)
Experimental: as §1, §2

T6 sequence (P32245 whole entry): as above

Binder	Ki [nM]
B1	11
B2	47.7
Ac-C[dA]H[dF]RWAC-NH2 (disulfide 1-8) [Ac-c(Cys-D-Ala-His-D-Phe-Arg-Trp-Ala-Cys)-NH2]	96.7
B3	2.55
B4	1.96
B5	4.93
B6	4.57
B7	50.6
B8	4.13
B9	40.7
Ac-[Nle]C[dA]H[dF]RWAC-NH2 (disulfide 2-9) [Ac-Nle-c(Cys-D-Ala-His-D-Phe-Arg-Trp-Ala-Cys)-NH2]	22.1

The binders below were run against T7, hMC3-R (human, UniProt P41968 1-323) in the same assay as above.
T7 construct: whole, on cells; Assayed as membranes of CHO-K1 cells expressing the receptor; also called hMC-R receptor subtype 3; melacortin-3 (MC3-R)
Experimental: as §1, §2

T7 sequence (P41968 whole entry): as the sequence (P41968 whole entry) above

Binder	Ki [nM]
B1	172
B2	1710
Ac-C[dA]H[dF]RWAC-NH2 (disulfide 1-8) [Ac-c(Cys-D-Ala-His-D-Phe-Arg-Trp-Ala-Cys)-NH2]	5990
B3	98.9
B4	14.1
B6	20.5
B7	445
B8	6.82
B9	4560
Ac-[Nle]C[dA]H[dF]RWAC-NH2 (disulfide 2-9) [Ac-Nle-c(Cys-D-Ala-His-D-Phe-Arg-Trp-Ala-Cys)-NH2]	1130

These binders were tested against T8, hMC5-R (human, UniProt P33032 1-325) in the same assay as above.
T8 construct: whole, on cells; Assayed as membranes of CHO-K1 cells expressing the receptor; also called hMC-R receptor subtype 5; melanocortin-5 receptor (MC5-R)
Experimental: as §1, §2

T8 sequence (P33032 whole entry): as the sequence (P33032 whole entry) above

Binder	Ki [nM]
B1	538
B2	694
B3	4.19
B4	24
B5	0.537
B6	502
B7	4300
B8	5.57
B9	8810
Ac-[Nle]C[dA]H[dF]RWAC-NH2 (disulfide 2-9) [Ac-Nle-c(Cys-D-Ala-His-D-Phe-Arg-Trp-Ala-Cys)-NH2]	2860
